Source: US20200325237A1

Experiments:
[1] = target: TfR2 (transferrin receptor 2) (UniProt Q9UP52); experiment: A450 plate assay on TfR2 (method not described in the text)
[2] = target: hTfR (human transferrin receptor, source and construct not stated) (human) (UniProt P02786); experiment: ELISA; ratio of the Kd on transferrin-captured hTfR to the Kd on directly coated hTfR
[3] = target: hTfR (human transferrin receptor, source and construct not stated) (human) (UniProt P02786); experiment: ELISA, biotinylated antibody on hTfR captured by plate-coated HFE (HFE+TfR); fit: specific binding with Hill slope
[4] = target: hTfR (human transferrin receptor, source and construct not stated) (human) (UniProt P02786); experiment: ELISA; ratio of the Kd on HFE-captured hTfR to the Kd on directly coated hTfR
[5] = target: hTfR (human transferrin receptor, source and construct not stated) (human) (UniProt P02786); experiment: ELISA, biotinylated antibody on hTfR captured by plate-coated human holo-transferrin (Tf+TfR); fit: specific binding with Hill slope

Sequence of hTfR (human transferrin receptor, source and construct not stated) (human) (P02786 89-760 limits assumed): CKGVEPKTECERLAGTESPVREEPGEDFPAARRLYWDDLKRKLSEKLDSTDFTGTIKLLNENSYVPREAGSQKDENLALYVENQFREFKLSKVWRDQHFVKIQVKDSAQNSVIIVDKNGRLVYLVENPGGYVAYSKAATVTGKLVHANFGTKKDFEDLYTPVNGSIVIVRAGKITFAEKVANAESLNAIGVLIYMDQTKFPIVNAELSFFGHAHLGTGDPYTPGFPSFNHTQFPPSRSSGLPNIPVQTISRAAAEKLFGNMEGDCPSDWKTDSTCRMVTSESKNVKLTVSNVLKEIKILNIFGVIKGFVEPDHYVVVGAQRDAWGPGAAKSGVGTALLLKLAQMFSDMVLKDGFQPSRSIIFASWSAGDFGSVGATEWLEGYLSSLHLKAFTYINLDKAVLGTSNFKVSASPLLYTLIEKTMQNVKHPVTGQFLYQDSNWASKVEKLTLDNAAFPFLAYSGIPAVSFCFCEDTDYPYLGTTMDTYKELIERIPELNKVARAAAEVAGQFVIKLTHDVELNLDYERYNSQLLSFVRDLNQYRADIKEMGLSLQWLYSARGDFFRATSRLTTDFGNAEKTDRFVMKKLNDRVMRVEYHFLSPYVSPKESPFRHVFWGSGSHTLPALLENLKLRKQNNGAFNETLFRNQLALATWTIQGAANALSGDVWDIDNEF
Sequence of TfR2 (transferrin receptor 2) (Q9UP52 105-801 limits assumed): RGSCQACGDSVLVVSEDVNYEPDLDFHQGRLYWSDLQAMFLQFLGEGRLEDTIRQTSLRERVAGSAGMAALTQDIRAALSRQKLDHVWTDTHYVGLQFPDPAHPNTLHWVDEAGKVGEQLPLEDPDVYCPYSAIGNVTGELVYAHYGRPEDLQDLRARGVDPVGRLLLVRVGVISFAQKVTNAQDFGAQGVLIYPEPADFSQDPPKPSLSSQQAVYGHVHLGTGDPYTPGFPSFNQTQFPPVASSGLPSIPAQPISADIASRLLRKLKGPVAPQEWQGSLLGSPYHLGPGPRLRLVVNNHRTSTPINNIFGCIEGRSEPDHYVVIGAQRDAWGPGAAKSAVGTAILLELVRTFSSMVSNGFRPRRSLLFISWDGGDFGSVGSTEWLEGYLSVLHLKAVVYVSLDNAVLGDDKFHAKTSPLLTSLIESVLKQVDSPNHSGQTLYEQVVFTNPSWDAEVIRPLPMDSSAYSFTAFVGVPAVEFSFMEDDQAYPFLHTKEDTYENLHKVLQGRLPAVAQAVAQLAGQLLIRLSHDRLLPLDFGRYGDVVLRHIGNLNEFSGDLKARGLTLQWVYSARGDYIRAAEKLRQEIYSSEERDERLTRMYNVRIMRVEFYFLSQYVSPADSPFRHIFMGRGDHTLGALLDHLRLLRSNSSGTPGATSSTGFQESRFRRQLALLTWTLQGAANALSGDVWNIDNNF

| EC50 (read off the curve) [1] | Kd(Tf+TfR)/Kd(TfR) [2] | Bmax [3] | Kd [3] | h [3] | Kd(HFE+TfR)/Kd(TfR) [4] | Bmax [5] | Kd [5] | h [5] | Substance |
| --- | --- | --- | --- | --- | --- | --- | --- | --- | --- |
| 0.3 nM | – | – | – | – | – | – | – | – | TfR2 Ab B-6 (antibody) |
| – | 51.8 | 5.7 A450 | 28.9 nM | 0.8 | 688 | 4.26 A450 | 2.18 nM | 1.12 | blocking AF2474 (antibody) |
